The values below come from article PMC2897852 (PLoS ONE, 2010).

One may read the stoichiometry N as a count of units in the complex or per binding partner.

B1: His-ClpX (M. tuberculosis ClpX, pRD21) (natural protein)
chain: not shown
notes: also called his-clpXTB; recombinant His-ClpX fusion protein
B2: purified FtsZ (M. tuberculosis) as used in the solid-phase binding and polymerization assays (natural protein)
chain: MTPPHNYLAVIKVVGIGGGGVNAVNRMIEQGLKGVEFIAINTDAQALLMSDADVKLDVGRDSTRGLGAGADPEVGRKAAEDAKDEIEELLRGADMVFVTAGEGGGTGTGGAPVVASIARKLGALTVGVVTRPFSFEGKRRSNQAENGIAALRESCDTLIVIPNDRLLQMGDAAVSLMDAFRSADEVLLNGVQGITDLITTPGLINVDFADVKGIMSGAGTALMGIGSARGEGRSLKAAEIAINSPLLEASMEGAQGVLMSIAGGSDLGLFEINEAASLVQDAAHPDANIIFGTVIDDSLGDEVRVTVIAAGFDVSGPGRKPVMGETGGAHRIESAKAGKLTSTLFEPVDAVSVPLHTNGATLSIGGDDDDVDVPPFMRR
notes: also called FtsZTB

Series [1] deals with the molecule itself. Nature of the series: SEC; purified ClpX on a Superdex 200 10/300 GL column; data not shown. In general terms: SEC sorts molecules by how far they enter the pores of the column.
Series [2] addresses B1. Nature of the series: ELISA. The settings on record: both partners purified. On the technique in general: In an ELISA, binding on a coated surface is turned into a signal by an enzyme label.

For B1, in series [1], the “stoichiometry N” value was 6.

On to B2, for which the binding result in series [2] is listed as “binds”.
